{"source": "patent US20250026813A1", "about": "(published 2025)", "data": [{"target": "SARS-CoV-2 spike protein trimer stabilised by double proline (PP) mutation (FIG. 2B sequence) with C (SARS-CoV-2, UniProt P0DTC2 14-1208; P10104 458-484)", "assay": "not given", "units": {"Kd": "nM"}, "values": [{"binder": "IMPI-013 (antibody, V domains shown) VH: EVQLVESGGGLVQPGRSLRLSCAASGFTFDDYAMHWVRQTPGKGLEWVSGISWNSGSIGYADSVKGRFTISRDNAKNSLYLQMNSLRAEDTALYYCTKDLGLGIGFYYGLDVWGQGTTVTVSS VL: AIQMTQSPSSLSTSVGDRVTITCRASQGIRNDLGWYQLKPGKAPKLLIYDASTLQSGVPSRFSGSGSGTDFTLTISSLEPEDLATYYCLHHYTYPWTFGHGTKVELK", "Kd": 0.299}]}, {"target": "SARS-CoV-2 spike protein bearing furin mutation and truncation in retention sequence, on pseudovirus (SARS-CoV-2, UniProt P0DTC2 14-1255)", "assay": "cell-based or functional assay", "units": {"pseudovirus neutralisation IC50": "nM"}, "values": [{"binder": "YANG-2302 (antibody, V domains shown) VH: QVQLVQSGAEVRKPGASVKVSCKVSGYTLPELAIHWVRQAPGKGLEWMGGFIPEDGDTIYAQKFQGRVTMTEDTSTDTAYMDLTSLRSEDAAVYYCTSGWAAPGYNYGMAVWGQGTTVTVSS VL: EVVLTQSPGTLSLSSGERATLSCRASQSVSSNYLAWYQKKPGQAPRLLIYGASSRVTGIPDRFGGSGSGTDFTLTISRLEPEDFAVYYCQQYDASPYSFGQGTKLDIK", "pseudovirus neutralisation IC50": 0.61}, {"binder": "YANG-2301 (antibody, V domains shown) VH: QVHLIQSGAEVKKPGASVKVSCKVSGYTLIEVSVHWVRQAPGKGLEWMGGFDPEAAETIYAQKFQGRVTMTEDTSTDTAYMDLSSLKSEDSAVYYCAIGPAVTGRNSGEYYYYYGMDVWGQGTTVTVAS VL: EIVMTQSPATLSVSPGERATLSCRASQSVNSNLAWYQQKPGQAPRLLIYAVSTRATGLPARFSGSGSGTEFTLTISSLQSEDFVVYYCHQYNNWPLTFGGGTKVEIK", "pseudovirus neutralisation IC50": 0.53}, {"binder": "YANG-2208 (antibody, V domains shown) VH: QIQLVQSGAEVRKPGASVRFSCKTSGYIFTNYYMVWVRQAPGQGLEWMGIIKPSGGNTIYAQKFQGRVTMTRDTSTNTVYMDLNNLRSEDTAVYFCARTGDRAFDVWGQGTMVTVSS VL: QSVLTQPPSMSAAPGQKVTISCSGNSSNIGNNFVSWYRQFPGTAPKLLIYDNNKRPSGIPDRFSGSKSGTSATLGITGLQTGDEADYYCGTWDSSLSAGVFGGGTKLTVL", "pseudovirus neutralisation IC50": 4.68}, {"binder": "YANG-2303 (antibody, V domains shown) VH: QVQLVQSGAEVKKPGASVRVSCKVSGYTLPELAIHWVRQAPGKGLEWMGGFDPEDGETIYAQKFQGRVIMTEDTSTDTAYMDLSSLRSEDTAVYYCVKTWAAPGYNYGLDTWGQGTTVTVSS VL: EIVLTQSPGILSLSPGESATLSCRASQSIASNYLAWFQQKPGQAPRLLIYGASSRAAGFPDRFSGSGSGTDFTLTIKRLEPEDSAVYYCQHYGSSPCSFGQGTNLEIK", "pseudovirus neutralisation IC50": 0.48}]}, {"target": "full soluble spike trimer of SARS-CoV-2 virus (stabilised, in-house) (SARS-CoV-2, UniProt P0DTC2 14-1208; P10104 458-484)", "assay": "not given", "units": {"IC50": "nM"}, "values": [{"binder": "IMPI-004 (antibody, V domains shown) VH: QVQLVESGGGVVQPGRSLRLSCAASGFTFSSYGMHWVRQAPGKGLEWVAVIWYDGGNKYYADSVKGRFTISRDNSKNTLYLQMNSLRAEDTAVYYCARVNVLMGYGMDVWGQGTTVTVSS VL: EIVLTQSPGTLSLSPGDKATLSCRASQSIISSFLAWYQQKPGQAPRLLIYGASSRATGIPDRFSGSGSGTDFTLTISRLEPEDFAVYYCQQYGSSLTFGGGTKVEIK", "IC50": 4.09}, {"binder": "IMPI-059 (antibody, V domains shown) VH: EVQLVESGGGLIQPGGSLRLSCAASGFTVSSIYMSWVRQAPGKGLEWVSIIYSRGSTDYADSVKGRFTISRDISKNTLYLQMNSLRAEDTAVYYCARDGTMVRGVHAFDIWGQGTMVTVSS VL: DIQMTQSPPSLSASIGDRVTITCQASQDISNYLNWYQQKPGKAPKLLIYDASNLETGVPSRFSGSGSGTDFTLTISNLQPEDIVTYYCQQYDNLPSSFGQGTKLEIK", "IC50": 8.38}, {"binder": "IMPI-055 (antibody, V domains shown) VH: QVQLVQSGAEVKKPGASVKVSCKASGYTFTSYDINWVRQATGQGLEWMGWMNPNSGNTGYAQKFQGRVTMTRDTSINTAYMELSSLRSEDTAVYFCARGGRYCSDVTCYSGEPFDYWGQGTLVTVSS VL: EIMLTQSPDFQSVTPKEKVTITCRASQSIGSSLHWYQQKPDQSPKLLIKFASQSISGVPSRFSGSGSGTDFTLTINSLEAEDAAAYYCHQSSSLPHTFGPGTKVEIK", "IC50": 4.5}, {"binder": "IMPI-029 (antibody, V domains shown) VH: EVQLVESGGGLIQPGGSLRLSCAASGVTVSSNYMNWVRQAPGKGLEWVSVIYSGGSTYYADSVKGRFTISRDNSKNTLFLQMNSLRAEDSAVYYCARDLGPYGVDVWGQGTTVTVSS VL: DIQLTQSPSFLSASVGDRVTITCWASQGISSYLAWYQQKPGKAPKLLIYAASTLQSGVPSRFSGSGSGTEFTLTISSLQPEDFATYYCQELNSYPLTFGQGTRLEIK", "IC50": 3.31}, {"binder": "IMPI-047 (antibody, V domains shown) VH: EVQLVESGGGLIQPGGSLRLSCAASGFTVSSNYMNWVRQAPGKGLEWVSVIYSGGSTYYADSVKGRFTISRDNSKNTLYLQMNSLRTEDTAVYYCARDLVAYGMDVWGQGTTVTVSS VL: DIQLTQSPSFLSASVGDRVTITCWASQGISSYLAWYQQKPGKAPKVLIYAASTLQSGVPSRFSGSGSGTEFTLTISSLQPEDFATYYCQLLNSNPLTFGGGTKVEIK", "IC50": 7.3}, {"binder": "IMPI-037 (antibody, V domains shown) VH: not shown VL: DIQLTQSPSFLSASVGDRVTITCWASQGINSYLAWYQQKPGKAPKLLIYAASTLQSGVPSRFSGSGSGTEFTLTISSLQPEDFTTYYCQQFNDYPRTFGPGTKVEIK", "IC50": 13.7}, {"binder": "IMPI-017 (antibody, V domains shown) VH: EVQLVESGGGLIQPGGSLRLSCAAAGLTVSSNYMNWVRQVPGKGLEWVSVIYSGGSTYYADSVKGRFTISRDNSKNTLYLQMNSLRAEDTAVYYCARDLGTLGMDVWGQGTTVTVSS VL: DIQLTQSPSFLSASVGDRVTITCWASQGISTYLAWYQQKPGKAPKLLIYAASTLQSGVPSRFSGSGSGTEFTLTISSLQPEDFATYYCQQLNSYLPTFGQGTKVEIK", "IC50": 3.15}, {"binder": "IMPI-060 (antibody, V domains shown) VH: EVQLVESGGGLIQPGGSLRLSCAASGVTVSSNYMSWVRQAPGKGLEWVSVIYSGGSTFYADSVKGRFTISRDNSKNTLYLQMNSLRAEDTAVYYCARDLSYYGMDVWGQGTTVTVSS VL: DIQLTQSPSFLSASVGDRVTITCWASQGISSYLAWYQQKPGKAPKLLIYAASTLQSGVPSKFSGSGSGTEFTLTISSLQPEDFATYYCQQLNSYPSSFGQGTKLEIK", "IC50": 5.26}, {"binder": "IMPI-056 (antibody, V domains shown) VH: EVQLVESGGGLIQPGGSLRLSCAASGLTVSSNYMNWVRQAPGKKLEWVSVIYSGGSTFYADSVRGRFTISRDNSKNTLFLQMNSLRAEDSAVYYCARDLGPYGVDVWGQGTTVTVSS VL: DIQLTQSPSFLSASVGDRVTITCWASQGISSYLAWYQQKPGKAPKLLIYAASTLQSGVPSRFSGSGSGTEFTLTISSLQPEDFATYYCQQLNSYPLTFGQGTRLEIK", "IC50": 3.73}, {"binder": "IMPI-005 (antibody, V domains shown) VH: EVQLVESGGGLIQPGGSLRLSCAASGFTVSSNYMNWVRQAPGKGLEWVSVIYSGGSTYYADSVKGRFTISRDNSKNTLFLQMNSLRAEDSAVYYCARDLGPYGVDVWGQGTTVTVSS VL: DIQLTQSPSFLSASVGDRVTITCWASQGISSYLAWYQQKPGKAPKLLIYAASTLQSGVPSRFSGSGSGTEFTLTISSLQPEDFATYYCQELNSYPLTFGQGTRLEIK", "IC50": 13.1}, {"binder": "IMPI-054 (antibody, V domains shown) VH: EVQLVESGGGLIQPGGSLRLSCAASGLTVSSNYMSWVRQAPGKGLEWVSIIYSGGSTYYADSVKGRFTISRDNSKNTLYLQMNSLRAEDTAVYYCARLGGYYYYGMDVWGQGTTVTVSS VL: DIQMTQSPSSLSASVGERVTITCQASQDIRNYLNWYQKKPGKAPKLLIYDSSNLETGVPSRFSGSGSGTDFTFTISSLQPEDIATYYCQQYDNLPITFGQGTRLEIK", "IC50": 11.6}]}]}
